From patent publication US20200207850A1 (MacroGenics, published 2020)

Legend:
[1] = molecular target: T1, B7-H3 on A498 and JIMT-1 target cells (UniProt Q5ZPR3 29-534, limits assumed); assay: cell-based or functional assay
T1 sequence (looked up): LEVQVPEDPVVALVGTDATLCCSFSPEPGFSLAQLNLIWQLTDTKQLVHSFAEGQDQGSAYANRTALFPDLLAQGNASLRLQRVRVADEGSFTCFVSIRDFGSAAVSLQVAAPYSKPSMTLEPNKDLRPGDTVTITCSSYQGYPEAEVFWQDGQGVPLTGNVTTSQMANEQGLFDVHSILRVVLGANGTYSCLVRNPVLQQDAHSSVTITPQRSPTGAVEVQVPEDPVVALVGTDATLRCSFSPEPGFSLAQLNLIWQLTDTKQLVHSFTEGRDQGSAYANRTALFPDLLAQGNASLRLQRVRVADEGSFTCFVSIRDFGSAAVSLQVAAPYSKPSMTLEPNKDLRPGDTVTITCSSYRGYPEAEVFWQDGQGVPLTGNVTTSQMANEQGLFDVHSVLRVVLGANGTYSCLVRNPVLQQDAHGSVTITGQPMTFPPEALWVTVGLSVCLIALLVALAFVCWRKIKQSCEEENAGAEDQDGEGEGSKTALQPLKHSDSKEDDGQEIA

[2] = molecular target: T1, B7-H3 on A498 and JIMT-1 target cells; assay: cell-based or functional assay; remark: listed apart in the source
[3] = molecular target: T2, CD8 on human T cells (PBMC) (human, UniProt P01732 22-235); assay: flow cytometry, binding to human CD5+/CD4- cells (bear CD8 and CD3) (MFI)
T2 construct: whole, on cells; The CD8+ (CD5+ CD4-) cells also carry CD3; also called CD5+ CD4- gated PBMC; CD8+ T cells

[4] = molecular target: T2, CD8 on human T cells (PBMC); assay: flow cytometry on human PBMC, CD5+/CD4- gated cells (bear CD8 and CD3), detection anti-human Fc (MFI)
[5] = molecular target: T2, CD8 on human T cells (PBMC); assay: flow cytometry on human PBMC, CD5+/CD4- gated cells (bear CD8 and CD3), detection PE anti-human Fc (MFI)
Protocol: 50 μL (4×10⁶ cells/mL) of well-mixed cells in FACS buffer containing 0.01% sodium azide were then added into corresponding wells and mixed thoroughly using a pipette. The plate was incubated in the dark for about 45 minutes at 2-8° C. At the end of the incubation, the cells were washed twice by adding 300 μL of FACS buffer to each well, centrifuging the plate at 1,200 rpm for 5 minutes, and discarding the supernatant. The cell pellets were re-suspended in 100 μL mixture of PE-conjugated goat anti-Human Fcγ 1:500 diluted, CD5-APC and CD4-PerCP5.5 in FACS buffer containing 0.01% sodium azide, and incubated in the dark for about 45 minutes at 2-8° C. At the end of the incubation, the cells were washed, re-suspended with FACS buffer, and analyzed with a BD Caliber flow cytometer. Cells were gated to CD5⁺ CD4⁺ (FIG. 9A) or CD5⁺ CD4⁻ (FIG. 9B).

T2 sequence (P01732 22-235): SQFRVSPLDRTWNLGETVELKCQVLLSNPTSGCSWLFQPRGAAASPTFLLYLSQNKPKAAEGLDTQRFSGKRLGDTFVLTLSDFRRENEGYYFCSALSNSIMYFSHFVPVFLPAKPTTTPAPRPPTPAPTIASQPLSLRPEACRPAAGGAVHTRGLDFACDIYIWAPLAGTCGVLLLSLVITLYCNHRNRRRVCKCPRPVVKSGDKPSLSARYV

LDH EC50 (pM), A498 cells [1]: 4 pM
LDH EC50 (pM), JIMT-1 cells [1]: 0.4 pM
Luciferase EC50 (pM), JIMT-1 cells [1]: 0.6 pM
EC50 (read off the curve) [3]: ~2 nM
EC50 (read off the curve) [4]: ~2 nM
EC50 (read off the curve) [5]: ~2 nM
B1: B7-H3 mAb 1/CD3 mAb 2/CD8 mAb 1 Tri-Specific Binding Molecule (other)
chain 1: DIQMTQSPSSLSASVGDRVTITCRASQDISNYLNWYQQKPGKAPKLLIYYTSRLHSGVPSRFSGSGSGTDFTLTISSLQPEDIATYYCQQGNTLPPTFGGGTKLEIKGGGSGGGGEVQLVESGGGLVQPGGSLRLSCAASGFTFSTYAMNWVRQAPGKGLEWVGRIRSKYNNYATYYADSVKDRFTISRDDSKNSLYLQMNSLKTEDTAVYYCVRHGNFGNSYVSWFAYWGQGTLVTVSSGGCGGGEVAALEKEVAALEKEVAALEKEVAALEKGGGDKTHTCPPCPAPEAAGGPSVFLFPPKPKDTLMISRTPEVTCVVVDVSHEDPEVKFNWYVDGVEVHNAKTKPREEQYNSTYRVVSVLTVLHQDWLNGKEYKCKVSNKALPAPIEKTISKAKGQPREPQVYTLPPSREEMTKNQVSLWCLVKGFYPSDIAVEWESNGQPENNYKTTPPVLDSDGSFFLYSKLTVDKSRWQQGNVFSCSVMHEALHNHYTQKSLSLSPGK
chain 2: QAVVTQEPSLTVSPGGTVTLTCRSSTGAVTTSNYANWVQQKPGQAPRGLIGGTNKRAPWTPARFSGSLLGGKAALTITGAQAEDEADYYCALWYSNLWVFGGGTKLTVLGGGGSGGGGQVQLVQSGAEVKKPGASVKVSCKASGYTFTSYWMQWVRQAPGQGLEWMGTIYPGDGDTRYTQKFKGRVTITADKSTSTAYMELSSLRSEDTAVYYCARRGIPRLWYFDVWGQGTTVTVSSGGCGGGKVAALKEKVAALKEKVAALKEKVAALKE
heavy: EVQLQQSGAELVKPGASVKLSCTASGFNIKDTYIHFVRQRPEQGLEWIGRIDPANDNTLYASKFQGKATITADTSSNTAYMHLCSLTSGDTAVYYCGRGYGYYVFDHWGQGTTLTVSSASTKGPSVFPLAPSSKSTSGGTAALGCLVKDYFPEPVTVSWNSGALTSGVHTFPAVLQSSGLYSLSSVVTVPSSSLGTQTYICNVNHKPSNTKVDKRVEPKSCDKTHTCPPCPAPEAAGGPSVFLFPPKPKDTLMISRTPEVTCVVVDVSHEDPEVKFNWYVDGVEVHNAKTKPREEQYNSTYRVVSVLTVLHQDWLNGKEYKCKVSNKALPAPIEKTISKAKGQPREPQVYTLPPSREEMTKNQVSLSCAVKGFYPSDIAVEWESNGQPENNYKTTPPVLDSDGSFFLVSKLTVDKSRWQQGNVFSCSVMHEALHNRYTQKSLSLSPGK
light: DVQINQSPSFLAASPGETITINCRTSRSISQYLAWYQEKPGKTNKLLIYSGSTLQSGIPSRFSGSGSGTDFTLTISGLEPEDFAMYYCQQHNENPLTFGAGTKLELRRTVAAPSVFIFPPSDEQLKSGTASVVCLLNNFYPREAKVQWKVDNALQSGNSQESVTEQDSKDSTYSLSSTLTLSKADYEKHKVYACEVTHQGLSSPVTKSFNRGEC
notes: Four different polypeptide chains covalently complexed, with Fc Domain
EC50 (nM) of killing, CD4+ effector cells, JIMT1-luc target cells, E:T 5:1 [2]: 0.0721 nM
EC50 (nM) of killing, CD8+ effector cells, JIMT1-luc target cells, E:T 5:1 [2]: 0.0054 nM
EC50 (nM) of killing, PanT effector cells, JIMT1-luc target cells, E:T 5:1 [2]: 0.0082 nM
